In article PMC10786891, “Massively parallel profiling of RNA-targeting CRISPR-Cas13d”:

T1: EsCas13d, nuclease-dead (Eubacterium siraeum, UniProt B0MS50, R295A;H300A;R849A;H854A)
T1 sequence: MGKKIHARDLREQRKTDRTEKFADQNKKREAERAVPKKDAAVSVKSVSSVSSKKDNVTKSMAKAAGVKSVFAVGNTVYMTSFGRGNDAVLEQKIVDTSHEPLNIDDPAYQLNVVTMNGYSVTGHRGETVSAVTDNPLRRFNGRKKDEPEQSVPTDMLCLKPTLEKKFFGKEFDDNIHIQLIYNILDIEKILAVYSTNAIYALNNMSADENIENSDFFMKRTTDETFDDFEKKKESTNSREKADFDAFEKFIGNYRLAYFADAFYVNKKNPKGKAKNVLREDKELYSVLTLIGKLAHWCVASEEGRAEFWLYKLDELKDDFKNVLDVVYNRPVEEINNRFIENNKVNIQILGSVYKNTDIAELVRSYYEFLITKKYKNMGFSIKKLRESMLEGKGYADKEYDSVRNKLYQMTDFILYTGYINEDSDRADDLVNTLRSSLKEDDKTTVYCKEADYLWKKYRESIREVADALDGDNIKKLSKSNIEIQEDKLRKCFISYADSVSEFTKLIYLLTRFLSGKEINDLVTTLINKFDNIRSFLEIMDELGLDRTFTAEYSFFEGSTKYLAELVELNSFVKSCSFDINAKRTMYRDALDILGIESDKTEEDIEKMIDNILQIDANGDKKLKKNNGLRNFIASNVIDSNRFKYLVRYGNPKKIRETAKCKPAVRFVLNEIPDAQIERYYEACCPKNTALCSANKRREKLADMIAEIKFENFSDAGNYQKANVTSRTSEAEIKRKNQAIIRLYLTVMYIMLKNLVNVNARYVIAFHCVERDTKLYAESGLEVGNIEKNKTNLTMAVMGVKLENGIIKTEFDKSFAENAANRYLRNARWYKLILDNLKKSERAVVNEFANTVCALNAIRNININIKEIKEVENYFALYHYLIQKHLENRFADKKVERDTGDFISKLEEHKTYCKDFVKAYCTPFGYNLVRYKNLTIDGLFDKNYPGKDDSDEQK

B1: target 2 MT 5'PFS UUC 3'PFS ACA (mixed)
RNA 1: CACCCGUGCAAAAUUGCAGGGGUCUAAAACCUUCUCCAAAUUGUUUCAUCCU
RNA 2: GGGAAUGGAUCCACAUCUACGAAUUCUUCAGGAUGAAACAAUUUGGAGAAGACAAGAUCGGAAGAGCACACGU
B2: target 2 MT 5'PFS GAG 3'PFS AGU (mixed)
RNA 1: CACCCGUGCAAAAUUGCAGGGGUCUAAAACCUUCUCCAAAUUGUUUCAUCCU
RNA 2: GGGAAUGGAUCCACAUCUACGAAUUCGAGAGGAUGAAACAAUUUGGAGAAGAGUAGAUCGGAAGAGCACACGU
B3: target 2 MT 5'PFS CAG 3'PFS CAC (mixed)
RNA 1: CACCCGUGCAAAAUUGCAGGGGUCUAAAACCUUCUCCAAAUUGUUUCAUCCU
RNA 2: GGGAAUGGAUCCACAUCUACGAAUUCCAGAGGAUGAAACAAUUUGGAGAAGCACAGAUCGGAAGAGCACACGU
B4: target 2 MT 5'PFS GAG 3'PFS CGG (mixed)
RNA 1: CACCCGUGCAAAAUUGCAGGGGUCUAAAACCUUCUCCAAAUUGUUUCAUCCU
RNA 2: GGGAAUGGAUCCACAUCUACGAAUUCGAGAGGAUGAAACAAUUUGGAGAAGCGGAGAUCGGAAGAGCACACGU
B5: target 2 MT 5'PFS GUA 3'PFS UGU (mixed)
RNA 1: CACCCGUGCAAAAUUGCAGGGGUCUAAAACCUUCUCCAAAUUGUUUCAUCCU
RNA 2: GGGAAUGGAUCCACAUCUACGAAUUCGUAAGGAUGAAACAAUUUGGAGAAGUGUAGAUCGGAAGAGCACACGU
B6: target 2 MT 5'PFS GGA 3'PFS UAC (mixed)
RNA 1: CACCCGUGCAAAAUUGCAGGGGUCUAAAACCUUCUCCAAAUUGUUUCAUCCU
RNA 2: GGGAAUGGAUCCACAUCUACGAAUUCGGAAGGAUGAAACAAUUUGGAGAAGUACAGAUCGGAAGAGCACACGU
B7: target 2 MT 5'PFS CGA 3'PFS UUU (mixed)
RNA 1: CACCCGUGCAAAAUUGCAGGGGUCUAAAACCUUCUCCAAAUUGUUUCAUCCU
RNA 2: GGGAAUGGAUCCACAUCUACGAAUUCCGAAGGAUGAAACAAUUUGGAGAAGUUUAGAUCGGAAGAGCACACGU
B8: target 2 MT 5'PFS GAG 3'PFS CGA (mixed)
RNA 1: CACCCGUGCAAAAUUGCAGGGGUCUAAAACCUUCUCCAAAUUGUUUCAUCCU
RNA 2: GGGAAUGGAUCCACAUCUACGAAUUCGAGAGGAUGAAACAAUUUGGAGAAGCGAAGAUCGGAAGAGCACACGU
B9: target 2 MT 5'PFS CAG 3'PFS CAG (mixed)
RNA 1: CACCCGUGCAAAAUUGCAGGGGUCUAAAACCUUCUCCAAAUUGUUUCAUCCU
RNA 2: GGGAAUGGAUCCACAUCUACGAAUUCCAGAGGAUGAAACAAUUUGGAGAAGCAGAGAUCGGAAGAGCACACGU
B10: target 2 MT 5'PFS CGC 3'PFS AGU (mixed)
RNA 1: CACCCGUGCAAAAUUGCAGGGGUCUAAAACCUUCUCCAAAUUGUUUCAUCCU
RNA 2: GGGAAUGGAUCCACAUCUACGAAUUCCGCAGGAUGAAACAAUUUGGAGAAGAGUAGAUCGGAAGAGCACACGU
B11: target 2 MT 5'PFS GGA 3'PFS UAU (mixed)
RNA 1: CACCCGUGCAAAAUUGCAGGGGUCUAAAACCUUCUCCAAAUUGUUUCAUCCU
RNA 2: GGGAAUGGAUCCACAUCUACGAAUUCGGAAGGAUGAAACAAUUUGGAGAAGUAUAGAUCGGAAGAGCACACGU
B12: target 2 MT 5'PFS GGA 3'PFS UAG (mixed)
RNA 1: CACCCGUGCAAAAUUGCAGGGGUCUAAAACCUUCUCCAAAUUGUUUCAUCCU
RNA 2: GGGAAUGGAUCCACAUCUACGAAUUCGGAAGGAUGAAACAAUUUGGAGAAGUAGAGAUCGGAAGAGCACACGU
B13: target 2 MT 5'PFS CGA 3'PFS CUA (mixed)
RNA 1: CACCCGUGCAAAAUUGCAGGGGUCUAAAACCUUCUCCAAAUUGUUUCAUCCU
RNA 2: GGGAAUGGAUCCACAUCUACGAAUUCCGAAGGAUGAAACAAUUUGGAGAAGCUAAGAUCGGAAGAGCACACGU
B14: target 2 MT 5'PFS UAG 3'PFS UCC (mixed)
RNA 1: CACCCGUGCAAAAUUGCAGGGGUCUAAAACCUUCUCCAAAUUGUUUCAUCCU
RNA 2: GGGAAUGGAUCCACAUCUACGAAUUCUAGAGGAUGAAACAAUUUGGAGAAGUCCAGAUCGGAAGAGCACACGU
B15: target 2 MT 5'PFS GGA 3'PFS CAC (mixed)
RNA 1: CACCCGUGCAAAAUUGCAGGGGUCUAAAACCUUCUCCAAAUUGUUUCAUCCU
RNA 2: GGGAAUGGAUCCACAUCUACGAAUUCGGAAGGAUGAAACAAUUUGGAGAAGCACAGAUCGGAAGAGCACACGU
B16: target 2 MT 5'PFS GCC 3'PFS CUA (mixed)
RNA 1: CACCCGUGCAAAAUUGCAGGGGUCUAAAACCUUCUCCAAAUUGUUUCAUCCU
RNA 2: GGGAAUGGAUCCACAUCUACGAAUUCGCCAGGAUGAAACAAUUUGGAGAAGCUAAGAUCGGAAGAGCACACGU
B17: target 2 MT 5'PFS GCC 3'PFS CUC (mixed)
RNA 1: CACCCGUGCAAAAUUGCAGGGGUCUAAAACCUUCUCCAAAUUGUUUCAUCCU
RNA 2: GGGAAUGGAUCCACAUCUACGAAUUCGCCAGGAUGAAACAAUUUGGAGAAGCUCAGAUCGGAAGAGCACACGU
B18: target 2 MT 5'PFS CAG 3'PFS CAA (mixed)
RNA 1: CACCCGUGCAAAAUUGCAGGGGUCUAAAACCUUCUCCAAAUUGUUUCAUCCU
RNA 2: GGGAAUGGAUCCACAUCUACGAAUUCCAGAGGAUGAAACAAUUUGGAGAAGCAAAGAUCGGAAGAGCACACGU
B19: target 2 MT 5'PFS UUC 3'PFS ACC (mixed)
RNA 1: CACCCGUGCAAAAUUGCAGGGGUCUAAAACCUUCUCCAAAUUGUUUCAUCCU
RNA 2: GGGAAUGGAUCCACAUCUACGAAUUCUUCAGGAUGAAACAAUUUGGAGAAGACCAGAUCGGAAGAGCACACGU
B20: target 2 MT 5'PFS GGA 3'PFS CAG (mixed)
RNA 1: CACCCGUGCAAAAUUGCAGGGGUCUAAAACCUUCUCCAAAUUGUUUCAUCCU
RNA 2: GGGAAUGGAUCCACAUCUACGAAUUCGGAAGGAUGAAACAAUUUGGAGAAGCAGAGAUCGGAAGAGCACACGU
B21: target 2 MT 5'PFS GGA 3'PFS CAA (mixed)
RNA 1: CACCCGUGCAAAAUUGCAGGGGUCUAAAACCUUCUCCAAAUUGUUUCAUCCU
RNA 2: GGGAAUGGAUCCACAUCUACGAAUUCGGAAGGAUGAAACAAUUUGGAGAAGCAAAGAUCGGAAGAGCACACGU
B22: target 2 MT 5'PFS GGA 3'PFS UAA (mixed)
RNA 1: CACCCGUGCAAAAUUGCAGGGGUCUAAAACCUUCUCCAAAUUGUUUCAUCCU
RNA 2: GGGAAUGGAUCCACAUCUACGAAUUCGGAAGGAUGAAACAAUUUGGAGAAGUAAAGAUCGGAAGAGCACACGU
B23: target 2 MT 5'PFS GAG 3'PFS CGC (mixed)
RNA 1: CACCCGUGCAAAAUUGCAGGGGUCUAAAACCUUCUCCAAAUUGUUUCAUCCU
RNA 2: GGGAAUGGAUCCACAUCUACGAAUUCGAGAGGAUGAAACAAUUUGGAGAAGCGCAGAUCGGAAGAGCACACGU
B24: target 1 insU 3' of 12,insU 3' of 12 (mixed)
RNA 1: CACCCGUGCAAAAAUGCAGGGGUCUAAAACUGAGCGGAUAACCUCUCUAUGG
RNA 2: GGGAAUGGAUCCACAUCUACGAAUUCGUACCAUAGAGAGGUUUUAUCCGCUCACCGAGAUCGGAAGAGCACACGU
B25: target 1 C2U,A14C (mixed)
RNA 1: CACCCGUGCAAAAAUGCAGGGGUCUAAAACUGAGCGGAUAACCUCUCUAUGG
RNA 2: GGGAAUGGAUCCACAUCUACGAAUUCGUACCAUAGAGCGGUUAUCCGCUUACCGAGAUCGGAAGAGCACACGU
B26: target 1 A14U,G15A (mixed)
RNA 1: CACCCGUGCAAAAAUGCAGGGGUCUAAAACUGAGCGGAUAACCUCUCUAUGG
RNA 2: GGGAAUGGAUCCACAUCUACGAAUUCGUACCAUAGAAUGGUUAUCCGCUCACCGAGAUCGGAAGAGCACACGU
B27: target 1 del3,del11 (mixed)
RNA 1: CACCCGUGCAAAAAUGCAGGGGUCUAAAACUGAGCGGAUAACCUCUCUAUGG
RNA 2: GGGAAUGGAUCCACAUCUACGAAUUCGUACCAUAGAGAGGUAUCCGCCACCGAGAUCGGAAGAGCACACGU
B28: target 1 insG 3' of 9,insA 3' of 6 (mixed)
RNA 1: CACCCGUGCAAAAAUGCAGGGGUCUAAAACUGAGCGGAUAACCUCUCUAUGG
RNA 2: GGGAAUGGAUCCACAUCUACGAAUUCGUACCAUAGAGAGGUUAGUCCAGCUCACCGAGAUCGGAAGAGCACACGU

Each binder was assayed against T1, EsCas13d, nuclease-dead (assay: crRNA (strand 1, pre-loaded); Mg2+; 40 mM Tris-HCl pH 7.5, 150 mM NaCl, 6 mM MgCl2, 1 mM DTT, 0.1% Tween-20, 0.2 mg/ml BSA; 25 C; 10 min per concentration, then washed). Settings: tags: His6-TwinStrep-SUMO cleaved; N-terminal SNAP kept (SNAP-Surface 488); label: 3' end held by stalled T7 RNA polymerase.
Work on B1 yielded a Kd of about 21 nM.
Binder B2 has a Kd of 9.1 ± 1.1 nM.
Work on B3 yielded a Kd of 5.6 ± 1.6 nM.
For B4, the Kd was 5.8 ± 0.4 nM.
B5 showed a Kd of 15.2 ± 1.2 nM.
In the case of B6, the Kd is reported as 16.1 ± 2.7 nM.
Work on B7 yielded a Kd of 9.2 ± 1.7 nM.
B8 showed a Kd of 4.9 ± 0.4 nM.
Binder B9 has a Kd of 7.2 ± 1.2 nM.
For B10, the Kd was 4.3 ± 0.6 nM.
In the case of B11, the Kd is reported as 9.1 ± 1.1 nM.
Binder B12 has a Kd of 8.7 ± 0.7 nM.
B13 showed a Kd of 8.3 ± 1.3 nM.
B14 was tested, and the Kd was 7.9 ± 0.8 nM.
B15 gave a Kd of 9.4 ± 1 nM.
Binder B16 has a Kd of 11.7 ± 2.4 nM.
B17 was tested, and the Kd was 18.3 ± 2.3 nM.
B18 was tested, and the Kd was 6.6 ± 2.7 nM.
B19 showed a Kd of about 16 nM.
Work on B20 yielded a Kd of 11.5 ± 1.5 nM.
Binder B21 has a Kd of 6.7 ± 1.2 nM.
Work on B22 yielded a Kd of 5.6 ± 0.9 nM.
Work on B23 yielded a Kd of 6.4 ± 0.4 nM.
In the case of B24, the Kd is reported as 10.1 ± 0.8 nM.
B25 showed a Kd of 80 ± 13 nM.
B26 showed a Kd of 64 ± 10 nM.
Binder B27 has a Kd of 66 ± 16 nM.
For B28, the Kd was 13.4 ± 0.7 nM.
